Substrate: Nc1nc2c(ncn2[C@@H]2O[C@H](COP(=O)(O)OP(=O)(O)OP(=O)(O)O)[C@@H](O)[C@H]2O)c(=O)[nH]1
Test: steady-state primer extension, denaturing PAGE
Assay type: biochemical, Pseudomonas aeruginosa
Conditions: 200 nM primer/template DNA (Cy5P/T29(A)), misinsertion opposite template dA, 5 mM MnCl2, pH 7.5, 30 °C
Description: steady-state primer extension, denaturing PAGE on Pa-PolDom

B1: Pa-PolDom (Pseudomonas aeruginosa PAO1) (protein)
chain: GARKASAGASRAATAGVRISHPQRLIDPSIQASKLELAEFHARYADLLLRDLRERPVSLVRGPDGIGGELFFQKHAARLKIPGIVQLDPALDPGHPPLLQIRSAEALVGAVQMGSIEFHTWNASLANLERPDRFVLDLDPDPALPWKRMLEATQLSLTLLDELGLRAFLKTSGGKGMHLLVPLERRHGWDEVKDFAQAISQHLARLMPERFSAVSGPRNRVGKIFVDYLRNSRGASTVAAYSVRAREGLPVSVPVFREELDSLQGANQWNLRSLPQRLDELAGDDPWADYAGTRQRISAAMRRQLGRG
notes: polymerization domain, residues 533-840; Arg532 codon replaced by start Met; E. coli BL21(DE3)
B1 was tested, and the Km was 1.211 ± 0.09 µM and the kcat was 0.92 ± 0.02 s⁻¹.

Reference: PMC7072297, “Structural Determinants Responsible for the Preferential Insertion of Ribonucleotides by Bacterial NHEJ PolDom” (Biomolecules, 2020)
